Assay results: patent US20140348747A1 (published 2014)

T1: NLpoly 5A2 (G15A/G35A/G51A/G67A/G71A)
T1 chain: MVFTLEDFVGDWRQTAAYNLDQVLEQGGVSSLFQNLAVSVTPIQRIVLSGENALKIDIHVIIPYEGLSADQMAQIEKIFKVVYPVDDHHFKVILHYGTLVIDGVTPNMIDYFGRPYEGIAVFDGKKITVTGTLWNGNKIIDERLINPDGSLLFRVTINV

T2: NLpoly 11S (12-A51T)
T2 chain: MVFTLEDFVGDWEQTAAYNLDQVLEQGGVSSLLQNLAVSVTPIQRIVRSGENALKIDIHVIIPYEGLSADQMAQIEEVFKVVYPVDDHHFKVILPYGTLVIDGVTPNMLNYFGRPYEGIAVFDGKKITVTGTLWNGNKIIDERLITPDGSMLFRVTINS

T3: wild-type non-luminescent polypeptide (WT fragment of residues 1-156 of NanoLuc)
T3 chain: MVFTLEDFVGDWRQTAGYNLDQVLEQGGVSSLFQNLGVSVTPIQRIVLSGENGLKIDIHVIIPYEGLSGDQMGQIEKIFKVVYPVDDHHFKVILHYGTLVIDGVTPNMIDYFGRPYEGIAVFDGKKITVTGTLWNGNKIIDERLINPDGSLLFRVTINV


What was measured:
[1] = target: T1, NLpoly 5A2 (G15A/G35A/G51A/G67A/G71A); experiment: luminescence complementation, one-site specific binding; replicate 1
[2] = target: T1, NLpoly 5A2 (G15A/G35A/G51A/G67A/G71A); experiment: luminescence complementation, one-site specific binding; replicate 2
[3] = target: T1, NLpoly 5A2 (G15A/G35A/G51A/G67A/G71A); experiment: luminescence complementation, one-site specific binding; replicate 3
NLpoly 11S (12-A51T) = target: T2, NLpoly 11S (12-A51T); experiment: kinetics (koff/kon)
[4] = target: T3, wild-type non-luminescent polypeptide …; experiment: luminescence complementation; PBS
[5] = target: T3, wild-type non-luminescent polypeptide …; experiment: luminescence complementation; NanoGlo
[6] = target: T3, wild-type non-luminescent polypeptide …; experiment: luminescence complementation; average HeLa, HEK293, CHO lysates
[7] = target: T3, wild-type non-luminescent polypeptide …; experiment: kinetics (koff/kon)
5P+V = experiment: luminescence complementation
5P+VT = experiment: luminescence complementation
5P+VTG = experiment: luminescence complementation

Row | Binder | Kd (NLpoly 11S (12-A51T)) [µM] | Kd [4] [µM] | Kd [5] [µM] | Kd [6] [µM] | Kd (5P+V) [µM] | Kd (5P+VT) [µM] | Kd (5P+VTG) [µM] | other results
1 | Ac-VSGWRLFKKIS-NH2 [NLpep86] |  |  |  |  |  |  |  | Kd [1]: 0.0991 µM; Kd [2]: 0.11 µM; Kd [3]: 0.0933 µM
2 | GVTGWRLCERILA [NLpepWT] | 629 | 1.34 | 20.6 | 8.35 |  |  |  | 
3 | NVTGYRLFKKISN [NLpep79] | 42 | 0.487 | 2.89 | 5.13 |  |  |  | Kd [7]: 5580 µM
4 | Ac-VSGWRLFKKISN-NH2 [NLpep80] |  |  |  |  | 0.0103 | 0.0096 | 0.0075 | 
5 | Ac-GWRLFKKISN-NH2 [NLpep82] |  |  |  |  | 0.128 | 0.198 | 0.273 | 
6 | Ac-SGWRLFKKISN-NH2 [NLpep81] |  |  |  |  | 0.15 | 0.218 | 0.283 | 
